From patent publication US20190142963A1 (INDIANA UNIVERSITY RESEARCH AND TECHNOLOGY, published 2019)
Like-named read-outs stand apart in the source and are kept apart here. Non-standard residues stand in square brackets, D forms with d. No end group written: not given here.

T1: human Klotho β (human, UniProt Q86Z14 1-1044)
T1 sequence (looked up): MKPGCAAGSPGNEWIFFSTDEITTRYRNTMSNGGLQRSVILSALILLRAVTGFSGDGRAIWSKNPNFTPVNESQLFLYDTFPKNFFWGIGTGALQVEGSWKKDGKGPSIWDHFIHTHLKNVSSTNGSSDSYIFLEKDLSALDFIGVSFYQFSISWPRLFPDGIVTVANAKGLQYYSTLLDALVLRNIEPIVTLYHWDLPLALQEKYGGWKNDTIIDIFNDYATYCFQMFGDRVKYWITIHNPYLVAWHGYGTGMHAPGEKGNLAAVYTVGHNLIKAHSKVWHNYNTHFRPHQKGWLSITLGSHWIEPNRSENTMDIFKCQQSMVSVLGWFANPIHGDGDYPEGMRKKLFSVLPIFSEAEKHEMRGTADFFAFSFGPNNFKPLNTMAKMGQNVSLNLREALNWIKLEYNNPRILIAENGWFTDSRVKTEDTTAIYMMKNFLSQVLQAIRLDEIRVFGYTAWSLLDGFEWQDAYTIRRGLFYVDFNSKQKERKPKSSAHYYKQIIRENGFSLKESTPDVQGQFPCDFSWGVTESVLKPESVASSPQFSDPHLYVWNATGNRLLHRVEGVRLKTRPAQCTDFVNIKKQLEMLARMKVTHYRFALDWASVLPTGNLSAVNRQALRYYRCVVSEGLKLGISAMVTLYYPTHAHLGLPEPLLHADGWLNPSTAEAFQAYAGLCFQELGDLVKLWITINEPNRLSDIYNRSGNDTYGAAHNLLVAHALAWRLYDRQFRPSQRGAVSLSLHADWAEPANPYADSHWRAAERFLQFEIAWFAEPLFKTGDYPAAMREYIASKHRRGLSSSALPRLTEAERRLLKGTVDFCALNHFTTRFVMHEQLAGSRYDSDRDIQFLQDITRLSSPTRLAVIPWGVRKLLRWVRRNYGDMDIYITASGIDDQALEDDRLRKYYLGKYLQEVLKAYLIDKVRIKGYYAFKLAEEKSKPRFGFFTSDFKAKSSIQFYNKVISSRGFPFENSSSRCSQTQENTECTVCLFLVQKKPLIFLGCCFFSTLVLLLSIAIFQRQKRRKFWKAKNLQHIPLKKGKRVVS


Columns and labels:
Assay in all cases: cell-based or functional assay
human Klotho β [1] = target: T1, human Klotho β
human Klotho β [2] = target: T1, human Klotho β; remark: listed apart in the source
human Klotho β [3] = target: T1, human Klotho β; remark: listed apart in the source
human Klotho β [4] = target: T1, human Klotho β; remark: listed apart in the source

% max activity of antagonism of FGF21 (pErk1/2, 293 HEK hKLB cells) (human Klotho β [1])	IC-50 of antagonism of FGF21 (pErk1/2, 293 HEK hKLB cells) (human Klotho β [1])	IC-50 of antagonism of FGF21 (pErk1/2, 293 HEK hKLB cells) (human Klotho β [2])	% Activity vs C25 (human Klotho β [3])	IC50 of antagonism of FGF21 (assay of Example 1) (human Klotho β [3])	IC-50 of antagonism of FGF21 (pErk1/2, 293 HEK hKLB cells) (human Klotho β [4])	Binder
100%	33 nM	0.39 µM	–	–	–	APDVGSSDPLSMVGPSQGRSPSYAS [FGF21 25mer A1]
–	–	–	54.2%	877 nM	–	[dP]PDVGSSDPLSMVGPSQGRSPSYAS-NH2 [FGF21 C25 d1]
97.7%	136 nM	0.13 µM	–	–	–	PPDVGSSDPLSMVAPSQGRSPSYAS [FGF21 25mer A14]
–	–	–	46%	531 nM	–	PPDVGSSDPLSMVGP[dS]QGRSPSYAS-NH2 [FGF21 C25 d16]
–	–	–	32.3%	1130 nM	–	PPDVGSSDPLSMVGPSQGRSPSY[dA]S-NH2 [FGF21 C25 d24]
102%	90.1 nM	0.09 µM	–	–	–	PPDVASSDPLSMVGPSQGRSPSYAS [FGF21 25mer A5]
98.5%	137 nM	0.62 µM	–	–	–	PADVGSSDPLSMVGPSQGRSPSYAS [FGF21 25mer A2]
94.5%	359 nM	0.36 µM	–	–	–	PPDVGSADPLSMVGPSQGRSPSYAS [FGF21 25mer A7]
100%	102 nM	0.1 µM	–	–	–	PPDVGSSDPLSMVGPSQGASPSYAS [FGF21 25mer A19]
76%	3.32 µM	–	–	–	2.75 µM	PPDVGSSDPASMVGPSQGRSPSYAS [FGF21 25mer A10]
93.9%	134 nM	0.12 µM	–	–	–	PPDVGSSDPLSMVGASQGRSPSYAS [FGF21 25mer A15]
–	–	–	3.8%	7800 nM	–	PPDVGSSDPLSMVGPSQGRS[dP]SYAS-NH2 [FGF21 C25 d21]
87.9%	2.11 µM	–	–	–	4.6 µM	PPDVGSSDPLSMAGPSQGRSPSYAS [FGF21 25mer A13]
–	–	–	7.61%	4720 nM	–	P[dP]DVGSSDPLSMVGPSQGRSPSYAS-NH2 [FGF21 C25 d2]
–	–	0.005 µM	–	–	–	PLETDSMDPFGLVTGLEAVRSPSFEA [FGF19 169-194 K194A]
73.5%	3.23 µM	–	–	–	2.21 µM	PPDVGSSDPLSMVGPSQGRAPSYAS [FGF21 25mer A20]
–	–	–	66.8%	375 nM	–	PPDVGSSDPLSMVG[dP]SQGRSPSYAS-NH2 [FGF21 C25 d15]
63.6%	5.93 µM	–	–	–	2.69 µM	PPDAGSSDPLSMVGPSQGRSPSYAS [FGF21 25mer A4]
–	–	–	15.6%	6100 nM	–	PP[dD]VGSSDPLSMVGPSQGRSPSYAS-NH2 [FGF21 C25 d3]
89.2%	2.65 µM	–	–	–	2.44 µM	PPDVGASDPLSMVGPSQGRSPSYAS [FGF21 25mer A6]
101%	120 nM	0.11 µM	–	–	–	PPDVGSSDPLSMVGPAQGRSPSYAS [FGF21 25mer A16]
–	–	–	90.3%	262 nM	–	PPDVGSSDPLSMVGPS[dQ]GRSPSYAS-NH2 [FGF21 C25 d17]
–	–	–	32.5%	1980 nM	–	PPDVG[dS]SDPLSMVGPSQGRSPSYAS-NH2 [FGF21 C25 d6]
99.7%	139 nM	0.13 µM	–	–	–	PPDVGSSDPLSMVGPSAGRSPSYAS [FGF21 25mer A17]
–	–	–	2.3%	33700 nM	–	PPDVGSSDPLSMVGPSQGR[dS]PSYAS-NH2 [FGF21 C25 d20]
99%	45 nM	0.06 µM	–	–	–	PPDVGSSDPLSMVGPSQGRSPSYAA [FGF21 25mer A25]
103%	139 nM	0.15 µM	–	–	–	PPDVGSSDPLSMVGPSQARSPSYAS [FGF21 25mer A18]
–	–	–	119%	264 nM	–	PPDVGSSDPLSMVGPSQGRSPSYA[dS]-NH2 [FGF21 C25 d25]
98%	102 nM	0.15 µM	–	–	–	PPDVGSSDPLAMVGPSQGRSPSYAS [FGF21 25mer A11]
70.5%	2.24 µM	–	–	–	2.57 µM	PPDVGSSDPLSMVGPSQGRSASYAS [FGF21 25mer A21]
